Experimental data from article PMC11844729.

Target: F-actin (actin filaments from rabbit skeletal muscle actin) (rabbit), P68135
Experiment: single-molecule TIRF microscopy
Conditions: remark: other sources report otherwise

B1: utrophin N-terminal fragment (amino acids 1 to 261)-sfGFP-6xHis, P46939 1-261 (domain or fragment)
chain: MAKYGEHEASPDNGQNEFSDIIKSRSDEHNDVQKKTFTKWINARFSKSGKPPINDMFTDLKDGRKLLDLLEGLTGTSLPKERGSTRVHALNNVNRVLQVLHQNNVELVNIGGTDIVDGNHKLTLGLLWSIILHWQVKDVMKDVMSDLQQTNSEKILLSWVRQTTRPYSQVNVLNFTTSWTDGLAFNAVLHRHKPDLFSWDKVVKMSPIERLEHAFSKAQTYLGIEKLLDPEDVAVQLPDKKSIIMYLTSLFEVLPQQVTID
modifications: here or on the partner: 30% DyLight-650 NHS ester-labelled and optionally 5% biotinylated (EZ-Link NHS-PEG4-biotin) actin
fold landing frequency on F-actin against mN2G^SR: 20 fold
